Measurements as given in the supplement of paper PMC12067230.
± gives the uncertainty stated by the source.

B1: N-13-E; numbered along this chain (parent)
chain: EASNCFAIRHFENKFAVETLICFNLFLNSQEKHY

Variants of: B1
Experiment: amyloid nucleation score relative to WT ADan (yeast Sup35 reporter selection) (log enrichment difference); higher = more amyloid nucleation
Procedure: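 Deep mutational scan of the ADan peptide fused to the Sup35 nucleation domain (SupN) in S. cerevisiae [psi-pin-], covering all single amino-acid substitutions and stop truncations (truncations = sequence up to the stop). After 24 h Cu2+ induction, cells were selected on -ADE-URA plates for 7 d at 30 °C. The nucleation score is log enrichment (output/input, deep sequencing) minus that of WT ADan, as the error-weighted mean of 3 biological replicates (DiMSum).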
In the case of EASNCFAIRHFEEKFAVETLICFNLFLNSQEKHY [N13E], the amyloid nucleation score is reported as -0.506 ± 0.14.
Work on EASNCFAIRHFEIKFAVETLICFNLFLNSQEKHY [N13I] yielded an amyloid nucleation score of -0.0116 ± 0.13.
Work on EASNCFAIRHFEDKFAVETLICFNLFLNSQEKHY [N13D] yielded an amyloid nucleation score of 0.0178 ± 0.13.
In the case of EASNCFAIRHFEAKFAVETLICFNLFLNSQEKHY [N13A], the amyloid nucleation score is reported as -0.453 ± 0.12.
EASNCFAIRHFEGKFAVETLICFNLFLNSQEKHY [N13G] showed an amyloid nucleation score of 1.19 ± 0.082.
Work on EASNCFAIRHFEKKFAVETLICFNLFLNSQEKHY [N13K] yielded an amyloid nucleation score of -0.309 ± 0.14.
Work on EASNCFAIRHFEPKFAVETLICFNLFLNSQEKHY [N13P] yielded an amyloid nucleation score of -0.534 ± 0.15.
EASNCFAIRHFELKFAVETLICFNLFLNSQEKHY [N13L] showed an amyloid nucleation score of -0.652 ± 0.086.
For EASNCFAIRHFEFKFAVETLICFNLFLNSQEKHY [N13F], the amyloid nucleation score was -0.221 ± 0.11.
EASNCFAIRHFERKFAVETLICFNLFLNSQEKHY [N13R] showed an amyloid nucleation score of -1.97 ± 0.1.
Variant EASNCFAIRHFEHKFAVETLICFNLFLNSQEKHY [N13H] has an amyloid nucleation score of -1.45 ± 0.23.
With EASNCFAIRHFESKFAVETLICFNLFLNSQEKHY [N13S] the amyloid nucleation score was -0.991 ± 0.09.
EASNCFAIRHFEVKFAVETLICFNLFLNSQEKHY [N13V] gave an amyloid nucleation score of 0.195 ± 0.09.
EASNCFAIRHFEYKFAVETLICFNLFLNSQEKHY [N13Y] showed an amyloid nucleation score of -1.67 ± 0.15.
Variant EASNCFAIRHFEWKFAVETLICFNLFLNSQEKHY [N13W] has an amyloid nucleation score of -0.378 ± 0.12.
Variant EASNCFAIRHFECKFAVETLICFNLFLNSQEKHY [N13C] has an amyloid nucleation score of -0.187 ± 0.12.
EASNCFAIRNFENKFAVETLICFNLFLNSQEKHY [H10N] showed an amyloid nucleation score of -0.16 ± 0.17.
Variant EASNCFAIRIFENKFAVETLICFNLFLNSQEKHY [H10I] has an amyloid nucleation score of 0.111 ± 0.16.
Work on EASNCFAIRGFENKFAVETLICFNLFLNSQEKHY [H10G] yielded an amyloid nucleation score of 0.122 ± 0.1.
Work on EASNCFAIRVFENKFAVETLICFNLFLNSQEKHY [H10V] yielded an amyloid nucleation score of 0.0906 ± 0.11.
EASNCFAIRLFENKFAVETLICFNLFLNSQEKHY [H10L] showed an amyloid nucleation score of -0.281 ± 0.1.
EASNCFAIRWFENKFAVETLICFNLFLNSQEKHY [H10W] gave an amyloid nucleation score of -0.926 ± 0.16.
Variant EASNCFAIRAFENKFAVETLICFNLFLNSQEKHY [H10A] has an amyloid nucleation score of 0.402 ± 0.14.
Variant EASNCFAIRTFENKFAVETLICFNLFLNSQEKHY [H10T] has an amyloid nucleation score of 0.0221 ± 0.14.
For EASNCFAIRSFENKFAVETLICFNLFLNSQEKHY [H10S], the amyloid nucleation score was -0.245 ± 0.1.
In the case of EASNCFAIRKFENKFAVETLICFNLFLNSQEKHY [H10K], the amyloid nucleation score is reported as 0.566 ± 0.18.
For EASNCFAIRYFENKFAVETLICFNLFLNSQEKHY [H10Y], the amyloid nucleation score was -0.291 ± 0.15.
Variant EASNCFAIREFENKFAVETLICFNLFLNSQEKHY [H10E] has an amyloid nucleation score of 0.551 ± 0.18.
Work on EASNCFAIRFFENKFAVETLICFNLFLNSQEKHY [H10F] yielded an amyloid nucleation score of -0.478 ± 0.15.
Work on EASNCFAIRQFENKFAVETLICFNLFLNSQEKHY [H10Q] yielded an amyloid nucleation score of 0.00592 ± 0.19.
EASNCFAIRMFENKFAVETLICFNLFLNSQEKHY [H10M] gave an amyloid nucleation score of -0.511 ± 0.18.
Work on EASNCFAIRPFENKFAVETLICFNLFLNSQEKHY [H10P] yielded an amyloid nucleation score of 0.798 ± 0.18.
EASNCFAIRDFENKFAVETLICFNLFLNSQEKHY [H10D] gave an amyloid nucleation score of 0.76 ± 0.16.
EASNCFAIRCFENKFAVETLICFNLFLNSQEKHY [H10C] showed an amyloid nucleation score of 0.429 ± 0.15.
EASNCFAIRRFENKFAVETLICFNLFLNSQEKHY [H10R] showed an amyloid nucleation score of 0.227 ± 0.1.
Work on EASNCFAIRHEENKFAVETLICFNLFLNSQEKHY [F11E] yielded an amyloid nucleation score of 0.0736 ± 0.14.
In the case of EASNCFAIRHRENKFAVETLICFNLFLNSQEKHY [F11R], the amyloid nucleation score is reported as 0.366 ± 0.095.
EASNCFAIRHAENKFAVETLICFNLFLNSQEKHY [F11A] showed an amyloid nucleation score of 0.14 ± 0.13.
EASNCFAIRHGENKFAVETLICFNLFLNSQEKHY [F11G] showed an amyloid nucleation score of 0.144 ± 0.091.
EASNCFAIRHDENKFAVETLICFNLFLNSQEKHY [F11D] showed an amyloid nucleation score of -0.0408 ± 0.15.
In the case of EASNCFAIRHLENKFAVETLICFNLFLNSQEKHY [F11L], the amyloid nucleation score is reported as 0.0755 ± 0.086.
Variant EASNCFAIRHWENKFAVETLICFNLFLNSQEKHY [F11W] has an amyloid nucleation score of -0.14 ± 0.13.
EASNCFAIRHSENKFAVETLICFNLFLNSQEKHY [F11S] showed an amyloid nucleation score of -0.135 ± 0.099.
Work on EASNCFAIRHPENKFAVETLICFNLFLNSQEKHY [F11P] yielded an amyloid nucleation score of 0.683 ± 0.19.
In the case of EASNCFAIRHIENKFAVETLICFNLFLNSQEKHY [F11I], the amyloid nucleation score is reported as 0.216 ± 0.14.
Variant EASNCFAIRHNENKFAVETLICFNLFLNSQEKHY [F11N] has an amyloid nucleation score of -0.169 ± 0.18.
Work on EASNCFAIRHKENKFAVETLICFNLFLNSQEKHY [F11K] yielded an amyloid nucleation score of 0.435 ± 0.17.
In the case of EASNCFAIRHVENKFAVETLICFNLFLNSQEKHY [F11V], the amyloid nucleation score is reported as 0.671 ± 0.087.
In the case of EASNCFAIRHTENKFAVETLICFNLFLNSQEKHY [F11T], the amyloid nucleation score is reported as 0.236 ± 0.13.
Work on EASNCFAIRHHENKFAVETLICFNLFLNSQEKHY [F11H] yielded an amyloid nucleation score of -0.0333 ± 0.17.
Work on EASNCFAIRHYENKFAVETLICFNLFLNSQEKHY [F11Y] yielded an amyloid nucleation score of 0.379 ± 0.14.
EASNCFAIRHCENKFAVETLICFNLFLNSQEKHY [F11C] gave an amyloid nucleation score of 0.247 ± 0.15.
Work on EASNCFAIRHMENKFAVETLICFNLFLNSQEKHY [F11M] yielded an amyloid nucleation score of 0.968 ± 0.15.
In the case of EASNCFAIRHQENKFAVETLICFNLFLNSQEKHY [F11Q], the amyloid nucleation score is reported as 0.646 ± 0.18.
EASNCFAIHHFENKFAVETLICFNLFLNSQEKHY [R9H] gave an amyloid nucleation score of -0.0444 ± 0.26.
EASNCFAIKHFENKFAVETLICFNLFLNSQEKHY [R9K] showed an amyloid nucleation score of -0.189 ± 0.19.
Variant EASNCFAIGHFENKFAVETLICFNLFLNSQEKHY [R9G] has an amyloid nucleation score of 0.614 ± 0.11.
With EASNCFAISHFENKFAVETLICFNLFLNSQEKHY [R9S] the amyloid nucleation score was 0.143 ± 0.12.
With EASNCFAIVHFENKFAVETLICFNLFLNSQEKHY [R9V] the amyloid nucleation score was -0.535 ± 0.12.
EASNCFAIAHFENKFAVETLICFNLFLNSQEKHY [R9A] showed an amyloid nucleation score of 0.274 ± 0.14.
For EASNCFAIFHFENKFAVETLICFNLFLNSQEKHY [R9F], the amyloid nucleation score was -0.221 ± 0.19.
Variant EASNCFAIDHFENKFAVETLICFNLFLNSQEKHY [R9D] has an amyloid nucleation score of 0.286 ± 0.17.
For EASNCFAITHFENKFAVETLICFNLFLNSQEKHY [R9T], the amyloid nucleation score was 0.386 ± 0.17.
EASNCFAICHFENKFAVETLICFNLFLNSQEKHY [R9C] showed an amyloid nucleation score of 0.0357 ± 0.14.
Work on EASNCFAILHFENKFAVETLICFNLFLNSQEKHY [R9L] yielded an amyloid nucleation score of -0.614 ± 0.12.
Variant EASNCFAIYHFENKFAVETLICFNLFLNSQEKHY [R9Y] has an amyloid nucleation score of 0.0138 ± 0.19.
With EASNCFAINHFENKFAVETLICFNLFLNSQEKHY [R9N] the amyloid nucleation score was 0.528 ± 0.27.
In the case of EASNCFAIIHFENKFAVETLICFNLFLNSQEKHY [R9I], the amyloid nucleation score is reported as -0.484 ± 0.22.
EASNCFAIQHFENKFAVETLICFNLFLNSQEKHY [R9Q] gave an amyloid nucleation score of 0.474 ± 0.17.
Variant EASNCFAIWHFENKFAVETLICFNLFLNSQEKHY [R9W] has an amyloid nucleation score of -0.819 ± 0.14.
With EASNCFAIMHFENKFAVETLICFNLFLNSQEKHY [R9M] the amyloid nucleation score was 0.735 ± 0.17.
For EASNCFAIEHFENKFAVETLICFNLFLNSQEKHY [R9E], the amyloid nucleation score was -0.741 ± 0.17.
